Assay results reported in US20230158141A1 (YAFEI SHANGHAI BIOLOG MEDICINE SCIENCE AND TECHNOLOGY, published 2023).

B1: anti-CD28 antibody heavy chain T30C-R4-1 (antibody, human IgG4, kappa, V domains shown)
VH: QVQLVQSGAEVKKPGASVKVSCKASGYTFCSYYIHWVRQAPGQGLEWIGCIYPGNVNTNYNEKFKDRATLTVDTSISTAYMELSRLRSDDTAVYFCTRSHYGLDWNFDVWGQGTTVTVSS
VL: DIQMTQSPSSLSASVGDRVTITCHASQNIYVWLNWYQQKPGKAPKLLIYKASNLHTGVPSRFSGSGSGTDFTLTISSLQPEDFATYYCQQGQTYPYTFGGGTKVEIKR
modifications: R4-1 on Cys 30
B2: anti-CD28 antibody heavy chain T58C-R4-1 (antibody, human IgG4, kappa, V domains shown)
VH: QVQLVQSGAEVKKPGASVKVSCKASGYTFTSYYIHWVRQAPGQGLEWIGCIYPGNVNCNYNEKFKDRATLTVDTSISTAYMELSRLRSDDTAVYFCTRSHYGLDWNFDVWGQGTTVTVSS
VL: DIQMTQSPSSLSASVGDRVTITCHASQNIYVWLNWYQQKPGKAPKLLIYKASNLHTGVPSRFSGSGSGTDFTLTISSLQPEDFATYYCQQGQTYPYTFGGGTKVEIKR
modifications: R4-1 on Cys 58
B3: anti-CD28 antibody heavy chain Y27C-R4-4 (antibody, human IgG4, kappa, V domains shown)
VH: QVQLVQSGAEVKKPGASVKVSCKASGCTFTSYYIHWVRQAPGQGLEWIGCIYPGNVNTNYNEKFKDRATLTVDTSISTAYMELSRLRSDDTAVYFCTRSHYGLDWNFDVWGQGTTVTVSS
VL: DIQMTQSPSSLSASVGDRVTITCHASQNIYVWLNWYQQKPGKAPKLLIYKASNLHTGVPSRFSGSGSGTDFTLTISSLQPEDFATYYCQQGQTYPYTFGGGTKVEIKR
modifications: R4-4 on Cys 27
B4: anti-CD28 antibody heavy chain Y52C-R4-4 (antibody, human IgG4, kappa, V domains shown)
VH: QVQLVQSGAEVKKPGASVKVSCKASGYTFTSYYIHWVRQAPGQGLEWIGCICPGNVNTNYNEKFKDRATLTVDTSISTAYMELSRLRSDDTAVYFCTRSHYGLDWNFDVWGQGTTVTVSS
VL: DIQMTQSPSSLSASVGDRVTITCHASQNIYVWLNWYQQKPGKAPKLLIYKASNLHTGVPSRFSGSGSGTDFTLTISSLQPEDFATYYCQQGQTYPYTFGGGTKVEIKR
modifications: R4-4 on Cys 52
B5: anti-PD-1 antibody 1 heavy chain I51C (antibody, human IgG4 S228P, kappa, V domains shown)
VH: QVQLVQSGVEVKKPGASVKVSCKASGYTFTNYYMYWVRQAPGQGLEWMGGCNPSNGGTNFNEKFKNRVTLTTDSSTTTAYMELKSLQFDDTAVYYCARRDYRFDMGFDYWGQGTTVTVSS
VL: EIVLTQSPATLSLSPGERATLSCRASKGVSTSGYSYLHWYQQKPGQAPRLLIYLASYLESGVPARFSGSGSGTDFTLTISSLEPEDFAVYYCQHSRDLPLTFGGGTKVEIKR
B6: anti-PD-1 antibody 1 heavy chain K63C (antibody, human IgG4 S228P, kappa, V domains shown)
VH: QVQLVQSGVEVKKPGASVKVSCKASGYTFTNYYMYWVRQAPGQGLEWMGGINPSNGGTNFNECFKNRVTLTTDSSTTTAYMELKSLQFDDTAVYYCARRDYRFDMGFDYWGQGTTVTVSS
VL: EIVLTQSPATLSLSPGERATLSCRASKGVSTSGYSYLHWYQQKPGQAPRLLIYLASYLESGVPARFSGSGSGTDFTLTISSLEPEDFAVYYCQHSRDLPLTFGGGTKVEIKR
B7: anti-PD-1 antibody 1 heavy chain Y35C (antibody, human IgG4 S228P, kappa, V domains shown)
VH: QVQLVQSGVEVKKPGASVKVSCKASGYTFTNYYMCWVRQAPGQGLEWMGGINPSNGGTNFNEKFKNRVTLTTDSSTTTAYMELKSLQFDDTAVYYCARRDYRFDMGFDYWGQGTTVTVSS
VL: EIVLTQSPATLSLSPGERATLSCRASKGVSTSGYSYLHWYQQKPGQAPRLLIYLASYLESGVPARFSGSGSGTDFTLTISSLEPEDFAVYYCQHSRDLPLTFGGGTKVEIKR
B8: anti-PD-1 antibody 2 heavy chain A61C (antibody, human IgG4 S228P, kappa, V domains shown)
VH: QVQLVESGGGVVQPGRSLRLDCKASGITFSNSGMHWVRQAPGKGLEWVAVIWYDGSKRYYCDSVKGRFTISRDNSKNTLFLQMNSLRAEDTAVYYCATNDDYWGQGTLVTVSS
VL: EIVLTQSPATLSLSPGERATLSCRASQSVSSYLAWYQQKPGQAPRLLIYDASNRATGIPARFSGSGSGTDFTLTISSLEPEDFAVYYCQQSSNWPRTFGQGTKVEIKR
B9: anti-PD-1 antibody 2 light chain A25C-R4-5 (antibody, human IgG4 S228P, kappa, V domains shown)
VH: QVQLVESGGGVVQPGRSLRLDCKASGITFSNSGMHWVRQAPGKGLEWVAVIWYDGSKRYYADSVKGRFTISRDNSKNTLFLQMNSLRAEDTAVYYCATNDDYWGQGTLVTVSS
VL: EIVLTQSPATLSLSPGERATLSCRCSQSVSSYLAWYQQKPGQAPRLLIYDASNRATGIPARFSGSGSGTDFTLTISSLEPEDFAVYYCQQSSNWPRTFGQGTKVEIKR
modifications: R4-5 on Cys 25
B10: anti-PD-1 antibody 2 light chain S92C-R4-1 (antibody, human IgG4 S228P, kappa, V domains shown)
VH: QVQLVESGGGVVQPGRSLRLDCKASGITFSNSGMHWVRQAPGKGLEWVAVIWYDGSKRYYADSVKGRFTISRDNSKNTLFLQMNSLRAEDTAVYYCATNDDYWGQGTLVTVSS
VL: EIVLTQSPATLSLSPGERATLSCRASQSVSSYLAWYQQKPGQAPRLLIYDASNRATGIPARFSGSGSGTDFTLTISSLEPEDFAVYYCQQSCNWPRTFGQGTKVEIKR
modifications: R4-1 on Cys 92
B11: anti-PD-1 antibody 2 light chain S30C-R4-1 (antibody, human IgG4 S228P, kappa, V domains shown)
VH: QVQLVESGGGVVQPGRSLRLDCKASGITFSNSGMHWVRQAPGKGLEWVAVIWYDGSKRYYADSVKGRFTISRDNSKNTLFLQMNSLRAEDTAVYYCATNDDYWGQGTLVTVSS
VL: EIVLTQSPATLSLSPGERATLSCRASQSVCSYLAWYQQKPGQAPRLLIYDASNRATGIPARFSGSGSGTDFTLTISSLEPEDFAVYYCQQSSNWPRTFGQGTKVEIKR
modifications: R4-1 on Cys 30

Experiments:
[1] = biological target: CD28 (UniProt P10747 19-152, limits assumed); experiment: ELISA, conjugate vs WT antibody
[2] = biological target: T1, PD-1 (UniProt Q15116 25-167, limits assumed); experiment: ELISA, OD mutant/OD WT; B=70-90%
[3] = biological target: T1, PD-1; experiment: ELISA, conjugate vs WT antibody

T1 sequence (Q15116 25-167 limits assumed): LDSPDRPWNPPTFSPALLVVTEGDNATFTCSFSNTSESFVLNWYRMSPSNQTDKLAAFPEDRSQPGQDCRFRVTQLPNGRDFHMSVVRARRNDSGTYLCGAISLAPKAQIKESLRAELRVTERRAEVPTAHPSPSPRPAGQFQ

Binder	binding activity (% of WT) [1] [%]	binding activity (OD after mutation/OD wild type) [2] [%]	also measured
B1	87.3	–	–
B2	89.3	–	–
B3	94.2	–	–
B4	91.6	–	–
B5	–	70 to 90	–
B6	–	70 to 90	–
B7	–	70 to 90	–
B8	–	70 to 90	–
B9	–	–	binding activity (% of WT) [3]: 87.2%
B10	–	–	binding activity (% of WT) [3]: 45.5%
B11	–	–	binding activity (% of WT) [3]: 34.4%
